Test results from article PMC5365143.

Molecular target: EGFP-HDQ74 (mutant huntingtin exon 1 with 74 glutamine residues)
Experiment: FRET or BRET

B1: AavLEA1-mCherry (natural protein)
chain: MSSQQNQNRQGEQQEQGYMEAAKEKVVNAWESTKETLSSTAQAAAEKTAEFRDSAGETIRDLTGQAQEKGQEFKERAGEKAEETKQRAGEKMDETKQRAGEMRENAGQKMEEYKQQGKGKAEELRDTAAEKLHQAGEKVKGRD
For B1, the dFRET was 3%.
